Measurements: publication PMC8562343

Target: Transportin-1 (TNPO1) (UniProt Q92973)
Test: ITC; MicroCal VP-ITC, 28 injections of 8 µl at 25°C; 50 mM Tris-HCl pH 7.5, 150 mM NaCl, 5 mM TCEP, 0.04% NaN3; standard one-site model; which protein was in the syringe is not given

UniProt Q92973, sequence (Q92973 whole entry): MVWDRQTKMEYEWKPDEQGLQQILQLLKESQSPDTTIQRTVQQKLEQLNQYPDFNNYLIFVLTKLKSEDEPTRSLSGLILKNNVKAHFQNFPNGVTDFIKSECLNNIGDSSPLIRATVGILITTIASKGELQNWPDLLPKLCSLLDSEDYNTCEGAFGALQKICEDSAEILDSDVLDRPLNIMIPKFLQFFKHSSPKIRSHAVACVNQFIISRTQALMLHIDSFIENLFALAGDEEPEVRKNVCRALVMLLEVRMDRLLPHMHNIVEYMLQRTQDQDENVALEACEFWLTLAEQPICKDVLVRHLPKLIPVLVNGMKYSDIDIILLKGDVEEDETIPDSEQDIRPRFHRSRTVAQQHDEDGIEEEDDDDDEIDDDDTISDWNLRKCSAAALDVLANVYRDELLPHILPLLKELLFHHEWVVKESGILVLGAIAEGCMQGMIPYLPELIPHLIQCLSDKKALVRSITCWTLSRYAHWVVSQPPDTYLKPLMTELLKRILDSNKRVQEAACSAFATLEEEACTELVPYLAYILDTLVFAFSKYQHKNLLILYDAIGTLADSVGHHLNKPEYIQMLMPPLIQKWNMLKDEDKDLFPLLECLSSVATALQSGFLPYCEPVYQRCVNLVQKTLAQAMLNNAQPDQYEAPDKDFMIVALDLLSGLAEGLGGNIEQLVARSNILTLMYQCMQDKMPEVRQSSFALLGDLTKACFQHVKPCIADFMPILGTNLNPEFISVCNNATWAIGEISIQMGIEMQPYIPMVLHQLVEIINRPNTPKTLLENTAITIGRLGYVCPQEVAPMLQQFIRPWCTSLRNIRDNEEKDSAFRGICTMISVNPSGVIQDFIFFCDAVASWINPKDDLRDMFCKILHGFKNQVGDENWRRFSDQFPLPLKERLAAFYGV

RG/RGG region of cold-inducible RNA-binding protein (CIRBP-RGG, amino acids 68-137) (from UniProt Q14011 68-137) (domain or fragment)
Kd: 124 nM
